The values that follow come from PMC3597684.

Common to all, as to assay: EMSA
(In general: In EMSA bound probe runs differently from free probe, usually more slowly.)

In one series the target is T1, SopB-R219K (plasmid F (Escherichia coli), UniProt P62558 1-323, R219K).
T1 sequence: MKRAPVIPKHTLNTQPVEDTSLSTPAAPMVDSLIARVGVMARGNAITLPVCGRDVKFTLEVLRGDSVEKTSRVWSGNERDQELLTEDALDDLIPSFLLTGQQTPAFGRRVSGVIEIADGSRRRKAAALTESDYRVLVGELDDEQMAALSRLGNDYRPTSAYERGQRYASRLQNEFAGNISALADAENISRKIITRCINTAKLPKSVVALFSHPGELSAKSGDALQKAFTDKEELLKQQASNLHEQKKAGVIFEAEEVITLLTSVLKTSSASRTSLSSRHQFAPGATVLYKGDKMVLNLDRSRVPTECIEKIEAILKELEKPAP

A further series addresses T2, SopB-R219A (plasmid F (Escherichia coli), UniProt P62558 1-323, R219A).
T2 sequence: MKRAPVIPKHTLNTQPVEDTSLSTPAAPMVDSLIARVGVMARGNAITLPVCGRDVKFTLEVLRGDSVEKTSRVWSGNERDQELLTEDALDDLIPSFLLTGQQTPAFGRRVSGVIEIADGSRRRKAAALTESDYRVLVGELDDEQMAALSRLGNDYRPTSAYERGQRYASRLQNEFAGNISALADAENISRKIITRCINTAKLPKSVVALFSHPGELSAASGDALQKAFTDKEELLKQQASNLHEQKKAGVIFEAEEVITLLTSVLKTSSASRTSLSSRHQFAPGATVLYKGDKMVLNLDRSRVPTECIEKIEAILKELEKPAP

Another series has as its target T3, SopB (SopB-G324) (plasmid F (Escherichia coli), UniProt P62558 1-323).
T3 sequence: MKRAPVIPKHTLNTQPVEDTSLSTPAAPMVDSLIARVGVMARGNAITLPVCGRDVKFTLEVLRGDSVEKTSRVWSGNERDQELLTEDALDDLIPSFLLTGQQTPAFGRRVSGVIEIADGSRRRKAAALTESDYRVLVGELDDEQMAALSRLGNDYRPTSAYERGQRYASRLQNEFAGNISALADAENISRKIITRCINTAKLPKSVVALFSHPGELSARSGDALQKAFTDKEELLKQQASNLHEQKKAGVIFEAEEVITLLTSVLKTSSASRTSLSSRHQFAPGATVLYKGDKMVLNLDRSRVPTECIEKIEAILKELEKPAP

Series [1] concerns the target T4, ParBPput-R194A (ParBPput-G291-R194A) (Pseudomonas putida, UniProt P0A152 1-290, R194A).
T4 sequence: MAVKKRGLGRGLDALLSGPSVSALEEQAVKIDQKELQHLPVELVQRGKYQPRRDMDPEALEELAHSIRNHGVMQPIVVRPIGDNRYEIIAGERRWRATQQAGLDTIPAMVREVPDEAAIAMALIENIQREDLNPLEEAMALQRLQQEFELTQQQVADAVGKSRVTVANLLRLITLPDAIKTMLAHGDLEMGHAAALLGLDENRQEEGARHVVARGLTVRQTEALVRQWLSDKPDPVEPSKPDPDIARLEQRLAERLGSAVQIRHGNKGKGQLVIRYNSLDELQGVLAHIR

B1: sopC2 (dsDNA)
DNA 1: ATTAGTCTGGGACCACGGTCCCACTCGTAT
DNA 2: ATACGAGTGGGACCGTGGTCCCAGACTAAT
With B1, the values for the binding signal with SopB-R219K and with SopB-R219A were ~100 fold loss vs wild-type SopB and > 200 fold loss vs wild-type SopB, respectively. Further, the binding result with SopB (SopB-G324) is given as “binds”.

B2: parS66 (Pput parS; assignment from listing order) (dsDNA)
DNA 1: ATTAGTCTGTTCCACGTGGAACACTCGTAT
DNA 2: ATACGAGTGTTCCACGTGGAACAGACTAAT
As for B2, in series [1], the binding result is recorded as “no binding”.
